This note sets out measurements from publication PMC6995525, “Structure of the PUB Domain from Ubiquitin Regulatory X Domain Protein 1 (UBXD1) and Its Interaction with the p97 AAA+ ATPase” (Biomolecules, 2019).

No end group written: not given here.

First the molecules themselves.
B2: UBXD1-PUB (150–264) (domain or fragment, UniProt Q9BZV1 150-264, looked up)
chain: STDPVAASIMKIYTFNKDQDRVKLGVDTIAKYLDNIHLHPEEEKYRKIKLQNKVFQERINCLEGTHEFFEAIGFQKVLLPAQDQEDPEEFYVLSETTLAQPQSLERHKEQLLAAE
notes: UBXD1 (ubiquitin regulatory X domain protein 1), PUB domain construct, residues 150-264; Cloned into pET28a (NdeI/HindIII); a few vector residues probably remain after thrombin cleavage (surmised); Theoretical MW 13.80 kDa; 15N- or 13C,15N-labelled for NMR; also called UBXD1-PUB wt; wild type (wt); source: E. coli Rosetta2, purified (Ni-NTA, thrombin cleavage of the tag, SEC); not shown: His6, …

Common to all, as to settings: both partners purified
Test [1] has as its target B2. The experiment in a line: ITC; UBXD1-PUB (100 µM) titrated with 1 mM p97-C10 peptide; 50 mM NaKPi pH 6.5, 25 °C; single-site model; triplicate, parameters averaged. (ITC needs no label: the signal is the heat of the interaction.)
A further test addresses T1, full-length p97 (UniProt P55072 1-806).
T1 construct: AAA+ ATPase p97 / valosin-containing protein (VCP) / Cdc48, full length; Cloning, tags and purification of p97-fl are not described; the methods say only that 'all proteins were expressed in Escherichia coli Rosetta2' and purified by Ni-NTA and SEC after thrombin cleavage; also called p97-fl; VCP
The experiment in a line: fluorescence polarisation; fluorescence anisotropy of UBXD1-PUB wt with full length p97; which partner was labeled and titrated is not told.

Test [2] has as its target T2, UBXD1-PUB (150–264) N201A (UniProt Q9BZV1 150-264, N201A).
T2 construct: UBXD1 PUB domain construct, residues 150-264, point mutant; source: E. coli Rosetta2, purified (Ni-NTA, thrombin cleavage of the tag, SEC); not shown: His6, N-terminal, cleaved
T2 sequence (looked up): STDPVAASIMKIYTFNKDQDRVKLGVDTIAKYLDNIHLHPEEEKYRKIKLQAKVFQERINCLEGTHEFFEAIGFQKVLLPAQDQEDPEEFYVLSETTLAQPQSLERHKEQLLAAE
The experiment in a line: fluorescence polarisation; fluorescence anisotropy; PUB constructs titrated to 100 nM 5,6-FAM labeled p97-C10 peptide; 50 mM NaKPi pH 6.5, 25 °C; triplicate; one-site quadratic fit. A general note: Fluorescence polarisation rises when a labelled molecule tumbles more slowly, as on binding a larger partner.

Test [3] addresses T3, UBXD1-PUB (150–264) Q200A (UniProt Q9BZV1 150-264, Q200A).
T3 construct: UBXD1 PUB domain construct, residues 150-264, point mutant; source: E. coli Rosetta2, purified (Ni-NTA, thrombin cleavage of the tag, SEC); not shown: His6, N-terminal, cleaved
T3 sequence (looked up): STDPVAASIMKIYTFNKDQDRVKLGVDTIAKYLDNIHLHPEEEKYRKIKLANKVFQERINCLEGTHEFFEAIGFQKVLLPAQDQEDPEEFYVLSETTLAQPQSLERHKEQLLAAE
The description is as above.

Test [4] addresses T4, UBXD1-PUB (150–264) V203A (UniProt Q9BZV1 150-264, V203A).
T4 construct: UBXD1 PUB domain construct, residues 150-264, point mutant; source: E. coli Rosetta2, purified (Ni-NTA, thrombin cleavage of the tag, SEC); not shown: His6, N-terminal, cleaved
T4 sequence (looked up): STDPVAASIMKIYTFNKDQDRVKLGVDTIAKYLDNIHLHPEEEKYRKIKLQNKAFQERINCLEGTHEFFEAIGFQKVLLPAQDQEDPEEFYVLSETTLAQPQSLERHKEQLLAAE
Described as above.

Test [5] addresses T5, UBXD1-PUB (150–264) K198E (UniProt Q9BZV1 150-264, K198E).
T5 construct: UBXD1 PUB domain construct, residues 150-264, point mutant; source: E. coli Rosetta2, purified (Ni-NTA, thrombin cleavage of the tag, SEC); not shown: His6, N-terminal, cleaved
T5 sequence (looked up): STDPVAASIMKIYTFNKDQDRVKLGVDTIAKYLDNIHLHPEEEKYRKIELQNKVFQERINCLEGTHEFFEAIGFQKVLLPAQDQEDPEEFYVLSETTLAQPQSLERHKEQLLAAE
Described as above.

For test [6], the target named is T6, UBXD1-PUB (150–264) N201D (UniProt Q9BZV1 150-264, N201D).
T6 construct: UBXD1 PUB domain construct, residues 150-264, point mutant; source: E. coli Rosetta2, purified (Ni-NTA, thrombin cleavage of the tag, SEC); not shown: His6, N-terminal, cleaved
T6 sequence (looked up): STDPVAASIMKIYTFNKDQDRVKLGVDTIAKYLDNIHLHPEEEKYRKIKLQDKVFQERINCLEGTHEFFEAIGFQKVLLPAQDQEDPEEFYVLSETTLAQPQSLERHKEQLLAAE
The description is as above.

In test [7] the target is T7, UBXD1-PUB (150–264) K193E (UniProt Q9BZV1 150-264, K193E).
T7 construct: UBXD1 PUB domain construct, residues 150-264, point mutant; source: E. coli Rosetta2, purified (Ni-NTA, thrombin cleavage of the tag, SEC); not shown: His6, N-terminal, cleaved
T7 sequence (looked up): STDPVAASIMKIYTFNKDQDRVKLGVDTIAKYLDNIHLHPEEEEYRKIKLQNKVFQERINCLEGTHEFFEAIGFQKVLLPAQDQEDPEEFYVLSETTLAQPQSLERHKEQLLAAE
The test is described as above.

The target of test [8] is T8, UBXD1-PUB (150–264) Y181A (UniProt Q9BZV1 150-264, Y181A).
T8 construct: UBXD1 PUB domain construct, residues 150-264, point mutant; source: E. coli Rosetta2, purified (Ni-NTA, thrombin cleavage of the tag, SEC); not shown: His6, N-terminal, cleaved
T8 sequence (looked up): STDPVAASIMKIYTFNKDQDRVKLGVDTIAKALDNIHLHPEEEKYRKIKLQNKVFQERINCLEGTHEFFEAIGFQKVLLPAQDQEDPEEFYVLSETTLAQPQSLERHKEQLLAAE
The test is described as above.

The target of test [9] is T9, UBXD1-PUB (150–264) Y194F (UniProt Q9BZV1 150-264, Y194F).
T9 construct: UBXD1 PUB domain construct, residues 150-264, point mutant; source: E. coli Rosetta2, purified (Ni-NTA, thrombin cleavage of the tag, SEC); not shown: His6, N-terminal, cleaved
T9 sequence (looked up): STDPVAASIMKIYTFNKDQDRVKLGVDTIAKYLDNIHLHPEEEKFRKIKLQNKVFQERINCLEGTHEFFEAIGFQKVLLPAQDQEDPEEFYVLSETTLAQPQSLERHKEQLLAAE
Described as above.

The target of test [10] is T10, UBXD1-PUB (150–264) E206R (UniProt Q9BZV1 150-264, E206R).
T10 construct: UBXD1 PUB domain construct, residues 150-264, point mutant; source: E. coli Rosetta2, purified (Ni-NTA, thrombin cleavage of the tag, SEC); not shown: His6, N-terminal, cleaved
T10 sequence (looked up): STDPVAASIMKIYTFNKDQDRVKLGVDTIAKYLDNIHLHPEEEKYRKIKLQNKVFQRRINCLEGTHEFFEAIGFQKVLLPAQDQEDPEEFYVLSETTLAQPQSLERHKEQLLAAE
The test is described as above.

In test [11] the target is B2. The description is as above.
The target of test [12] is T11, UBXD1-PUB (150–264) N184A (UniProt Q9BZV1 150-264, N184A).
T11 construct: UBXD1 PUB domain construct, residues 150-264, point mutant; source: E. coli Rosetta2, purified (Ni-NTA, thrombin cleavage of the tag, SEC); not shown: His6, N-terminal, cleaved
T11 sequence (looked up): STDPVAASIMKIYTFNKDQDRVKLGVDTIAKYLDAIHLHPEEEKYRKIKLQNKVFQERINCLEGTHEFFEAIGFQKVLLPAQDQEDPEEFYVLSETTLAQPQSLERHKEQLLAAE
The description is as above.

For test [13], the target named is T12, UBXD1-PUB (150–264) Y194A (UniProt Q9BZV1 150-264, Y194A).
T12 construct: UBXD1 PUB domain construct, residues 150-264, point mutant; source: E. coli Rosetta2, purified (Ni-NTA, thrombin cleavage of the tag, SEC); not shown: His6, N-terminal, cleaved
T12 sequence (looked up): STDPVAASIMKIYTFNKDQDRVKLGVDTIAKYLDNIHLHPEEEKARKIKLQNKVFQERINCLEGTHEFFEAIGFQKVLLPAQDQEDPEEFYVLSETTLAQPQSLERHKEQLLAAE
The test is described as above.

Test [14] deals with T13, UBXD1-PUB (150–264) R207E (UniProt Q9BZV1 150-264, R207E).
T13 construct: UBXD1 PUB domain construct, residues 150-264, point mutant; source: E. coli Rosetta2, purified (Ni-NTA, thrombin cleavage of the tag, SEC); not shown: His6, N-terminal, cleaved
T13 sequence (looked up): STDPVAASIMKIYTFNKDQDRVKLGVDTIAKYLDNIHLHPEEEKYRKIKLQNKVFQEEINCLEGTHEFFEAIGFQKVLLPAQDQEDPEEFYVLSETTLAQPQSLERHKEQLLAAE
The test is described as above.

The target in test [15] is T14, UBXD1-PUB (150–264) N184D (UniProt Q9BZV1 150-264, N184D).
T14 construct: UBXD1 PUB domain construct, residues 150-264, point mutant; source: E. coli Rosetta2, purified (Ni-NTA, thrombin cleavage of the tag, SEC); not shown: His6, N-terminal, cleaved
T14 sequence (looked up): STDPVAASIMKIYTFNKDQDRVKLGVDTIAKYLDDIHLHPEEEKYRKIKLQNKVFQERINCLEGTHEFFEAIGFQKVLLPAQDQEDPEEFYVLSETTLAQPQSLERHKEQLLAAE
Described as above.

For test [16], the target named is T15, UBXD1-PUB (150–264) Y181F (UniProt Q9BZV1 150-264, Y181F).
T15 construct: UBXD1 PUB domain construct, residues 150-264, point mutant; source: E. coli Rosetta2, purified (Ni-NTA, thrombin cleavage of the tag, SEC); not shown: His6, N-terminal, cleaved
T15 sequence (looked up): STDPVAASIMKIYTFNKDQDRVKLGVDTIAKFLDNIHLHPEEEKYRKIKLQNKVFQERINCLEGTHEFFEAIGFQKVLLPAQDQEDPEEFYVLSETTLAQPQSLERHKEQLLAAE
The test is described as above.

T1 sequence (P55072 whole entry): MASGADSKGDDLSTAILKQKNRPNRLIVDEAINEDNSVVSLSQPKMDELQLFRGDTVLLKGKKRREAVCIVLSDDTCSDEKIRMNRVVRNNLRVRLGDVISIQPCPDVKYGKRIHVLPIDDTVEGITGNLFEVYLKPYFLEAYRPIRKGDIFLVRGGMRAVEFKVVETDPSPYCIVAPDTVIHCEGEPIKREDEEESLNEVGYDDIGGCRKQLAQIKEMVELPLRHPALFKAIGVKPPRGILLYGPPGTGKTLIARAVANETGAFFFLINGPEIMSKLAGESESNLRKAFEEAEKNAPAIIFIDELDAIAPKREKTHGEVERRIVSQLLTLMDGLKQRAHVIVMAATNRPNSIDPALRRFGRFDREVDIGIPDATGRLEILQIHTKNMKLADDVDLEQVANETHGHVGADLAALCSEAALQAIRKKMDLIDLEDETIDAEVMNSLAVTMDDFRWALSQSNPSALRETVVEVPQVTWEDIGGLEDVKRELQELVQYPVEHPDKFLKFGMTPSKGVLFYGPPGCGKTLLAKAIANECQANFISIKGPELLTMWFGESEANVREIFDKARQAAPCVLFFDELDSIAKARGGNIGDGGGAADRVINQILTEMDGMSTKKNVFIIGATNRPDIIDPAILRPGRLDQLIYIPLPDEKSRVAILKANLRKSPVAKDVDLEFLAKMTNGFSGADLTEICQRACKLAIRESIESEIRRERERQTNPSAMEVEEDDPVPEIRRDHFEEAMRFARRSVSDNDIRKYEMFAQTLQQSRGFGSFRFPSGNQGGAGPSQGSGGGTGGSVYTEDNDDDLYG

B1: p97-C10 peptide (unlabeled) (peptide)
peptide: TEDNDDDLYG
notes: also called p97-PIM; p97-C10 PIM peptide; source: synthetic peptide, bought: Caslo ApS (Denmark)
B1: in the test with UBXD1-PUB (150–264) [1], the Kd – broadly, the constant that tells how readily two partners part at equilibrium – is 15 ± 5 µM; the dH was -13.6 ± 2.02 kJ/mol; the stoichiometry N (usually the number of molecules, sites or subunits per partner or assembly) is 1.1 ± 0.2.
In the test with full-length p97, B2 displayed a Kd of 8.4 µM.

B3: 5,6-FAM-labeled p97-C10 peptide (peptide)
peptide: TEDNDDDLYG
modifications: also: 5,6-FAM label, position not given here
notes: source: synthetic peptide, bought: Caslo ApS (Denmark)
As for B3, the Kd came out at 64.1 µM in test [2]; 8.3 µM in test [3]; 25.3 µM in [4]; 49.3 µM in [5]; 280 µM in test [6]; 17.7 µM in [7]. The Kd in [8] amounted to 111 µM; in test [9], 141 µM; in test [10], 39.4 µM; in the test with UBXD1-PUB (150–264) [11] it was 13.8 µM; in [12] it was 28.7 µM; in [13] it was 53 µM. In addition, the results for the Kd in test [14], in test [15] and in [16] were 88 µM, 80 µM and 28.4 µM, respectively.
